According to paper doi:10.1101/2023.09.21.558797:

Target: His-tagged mouse Endophilin A1 SH3 domain (mouse) (UniProt Q62420)
Test: ELISA; His-tagged mouse Endophilin A1 SH3 domain coated on a 96-well plate, overlaid with increasing concentrations of GST-tagged Dyn1-PRR peptides; two experiments of four replicates

His-tagged mouse Endophilin A1 SH3 domain (mouse), sequence (Q62420 290-349): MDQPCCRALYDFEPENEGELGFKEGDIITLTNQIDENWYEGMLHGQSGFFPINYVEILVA

Substance “GST-Dyn1xB-PRR (full-length proline-rich region of Dynamin 1 splice variant xB, 746-851) (domain or fragment)” has a fold lower affinity than xA (746–864) of 3 fold.
